Data taken from the supplement of paper PMC9112550, “Optimization of the antimicrobial peptide Bac7 by deep mutational scanning” (BMC Biology, 2022).

Test system: Escherichia coli TOP10
Assay: shrunken log2 fold change of peptide-encoding DNA abundance (4.5 h post-induction vs induction); higher = less antimicrobial activity (less host growth inhibition)
Conditions: time post-induction: 4.5 h; library: site-saturation at positions 5, 18, 19, 20
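Further: peptides expressed intracellularly from a pBAD plasmid library in pooled LB shake-flask culture, induced with 0.3% L-arabinose, DNA abundance read by NGS, three biological replicates, DESeq2 with apeglm shrinkage.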

Row | Sequence | shrunken log2 fold change
1 | RRIRNRPPRLPRPRPRPDAMPRP | -0.0496
2 | RRIRERPPRLPRPRPRPYASPRP | -0.303
3 | RRIRPRPPRLPRPRPRPWWMPRP | 0.0483
4 | RRIRIRPPRLPRPRPRPEPPPRP | 0.254
5 | RRIRLRPPRLPRPRPRPCCTPRP | -0.0665
6 | RRIRSRPPRLPRPRPRPDYKPRP | -0.722
7 | RRIRERPPRLPRPRPRPKWNPRP | -0.447
8 | RRIRLRPPRLPRPRPRPKIPPRP | -0.292
9 | RRIRGRPPRLPRPRPRPYIAPRP | -0.391
10 | RRIRHRPPRLPRPRPRPFLFPRP | -0.408
11 | RRIRFRPPRLPRPRPRPVRSPRP | 0.234
12 | RRIRMRPPRLPRPRPRPKSLPRP | 0.171
13 | RRIRLRPPRLPRPRPRPACSPRP | 0.0854
14 | RRIRYRPPRLPRPRPRPEACPRP | -0.0328
15 | RRIRRRPPRLPRPRPRPKRYPRP | 0.00167
16 | RRIRPRPPRLPRPRPRPMIWPRP | -0.136
17 | RRIRQRPPRLPRPRPRPIAHPRP | -0.148
18 | RRIRYRPPRLPRPRPRPLNFPRP | -1.01
19 | RRIRERPPRLPRPRPRPISTPRP | -0.346
20 | RRIRPRPPRLPRPRPRPVKAPRP | 0.216

Row | Sequence | shrunken log2 fold change
21 | RRIRVRPPRLPRPRPRPQRHPRP | -0.0604
22 | RRIRRRPPRLPRPRPRPFGTPRP | 0.0468
23 | RRIRTRPPRLPRPRPRPFRTPRP | -0.146
24 | RRIRYRPPRLPRPRPRPCHTPRP | -0.141
25 | RRIRYRPPRLPRPRPRPPLAPRP | 0.13
26 | RRIRFRPPRLPRPRPRPMFCPRP | -0.111
27 | RRIRSRPPRLPRPRPRPWKHPRP | -0.0883
28 | RRIRERPPRLPRPRPRPWLWPRP | 0.239
29 | RRIRFRPPRLPRPRPRPSGSPRP | -0.192
30 | RRIRYRPPRLPRPRPRPYSRPRP | -0.01
31 | RRIRIRPPRLPRPRPRPHSIPRP | -0.933
32 | RRIRCRPPRLPRPRPRPGTTPRP | 0.844
33 | RRIRFRPPRLPRPRPRPRRAPRP | 0.678
34 | RRIRRRPPRLPRPRPRPCFTPRP | -0.156
35 | RRIRRRPPRLPRPRPRPEQCPRP | -0.00836
36 | RRIRRRPPRLPRPRPRPQQTPRP | -0.0146
37 | RRIRLRPPRLPRPRPRPLYPPRP | -0.12
38 | RRIRARPPRLPRPRPRPKIGPRP | 0.458
39 | RRIRPRPPRLPRPRPRPDSSPRP | -0.000765
40 | RRIRERPPRLPRPRPRPCDEPRP | 0.011

Row | Sequence | shrunken log2 fold change
41 | RRIRWRPPRLPRPRPRPNVCPRP | 0.0917
42 | RRIRMRPPRLPRPRPRPDTFPRP | 0.403
43 | RRIRDRPPRLPRPRPRPNRTPRP | -0.477
44 | RRIRDRPPRLPRPRPRPRCLPRP | -0.0519
45 | RRIRVRPPRLPRPRPRPNFGPRP | -0.098
46 | RRIRYRPPRLPRPRPRPVHEPRP | 0.0155
47 | RRIRMRPPRLPRPRPRPFACPRP | -0.1
48 | RRIRFRPPRLPRPRPRPDYQPRP | -0.268
49 | RRIRLRPPRLPRPRPRPVLLPRP | 0.0821
50 | RRIRPRPPRLPRPRPRPGLRPRP | 3.24
51 | RRIRIRPPRLPRPRPRPWTDPRP | -0.111
52 | RRIRYRPPRLPRPRPRPWDCPRP | -0.00865
53 | RRIRTRPPRLPRPRPRPWVMPRP | -0.125
54 | RRIRWRPPRLPRPRPRPWMWPRP | 0.0359
55 | RRIRERPPRLPRPRPRPQNSPRP | -0.505
56 | RRIRWRPPRLPRPRPRPINTPRP | -0.494
57 | RRIRRRPPRLPRPRPRPVTQPRP | 0.197
58 | RRIRTRPPRLPRPRPRPQQQPRP | -0.0474
59 | RRIRYRPPRLPRPRPRPTVLPRP | 0.00488
60 | RRIRFRPPRLPRPRPRPKEGPRP | 0.0546
